T1: Mouse profilin 2a, Q9JJV2
T1 chain: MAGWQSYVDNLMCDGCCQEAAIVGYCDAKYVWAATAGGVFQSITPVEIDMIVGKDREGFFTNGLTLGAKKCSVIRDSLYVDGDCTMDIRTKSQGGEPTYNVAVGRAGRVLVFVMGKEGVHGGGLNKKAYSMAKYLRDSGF


Experiments:
[1] = target: T1, Mouse profilin 2a, Q9JJV2; experiment: sedimentation equilibrium analytical ultracentrifugation; conditions: chain shown with the change
Human profilin 1, P07737 = experiment: as above; conditions: chain shown with the change; modeled as a 1:1 interaction
[2] = two-site, independent binding model with one site fixed to the measured non-specific affinity

| Binder | Kd [1, 2] [µM] | other results |
| --- | --- | --- |
| WAVE1 (P): human WAVE1 [277–488], wild-type proline-rich domain, Q92558 P279G; P280S; P281G; P282S; P348G; P349S; P350G; P351S; P354G; P355S; P356G; P357S; … (protein) MPLVKRNIDPRHLCHTALPRGIKNELECVTNISLANIIRQLSSLSKYAEDIFGELFNEAHSFSFRVNSLQERVDRLSVSVTQLDPKEEELSLQDITMRKAFRSSTIQDQQLFDRKTLPIPLQETYDVCEQPPPLNILTPYRDDGKEGLKFYTNPSYFFDLWKEKMLQDTEDKRKEKRKQKQKNLDRPHEPEKVPRAPHDRRREWQKLAQGPELAEDDANLLHKHIEVANGPASHFETRPQTYVDHMDGSYSLSALPFSQMSELLTRAEERVLVRPHEPGSGSPMHGAGDAKPIPTCISSATGLIENRPQSPATGRTPVFVSPTPPPPPPPLPSALSTSSLRASMTSTGSGSVPGSGSPPATALQAPAVGSGSAPLQIAPGVLHPAGSGIAGSLVQPSPPVARAAPVCETVPVHPLPQGEVQGLPPGSGSPPLGSGGIRPSSPVTVTALAHPPSGLHPTPSTAPGPHVPLMPPSPPSQVIPASEPKRHPSTLPVISDARSVLLEAIRKGIQLRKVEEQREQEAKHERIENDVATILSRRIAVEYSDSEDDSEFDEVDWLE |  | Kd ([1]; WAVE1 (PRD [B]) 15.5 µM, Pfn2 91.2, 44.8 and 21.7 µM, 7 K, 10 K, 14 K rpm, 2:1 binding model, Kd1 fit, Kd2 = 138 µM fixed): 2.07 µM |
| WAVE1 (P): human WAVE1 [277–488], wild-type proline-rich domain, Q92558 P279G; P280S; P281G; P282S; P325G; P326S; P327G; P328S; P348G; P349S; P350G; P351S; … (protein) MPLVKRNIDPRHLCHTALPRGIKNELECVTNISLANIIRQLSSLSKYAEDIFGELFNEAHSFSFRVNSLQERVDRLSVSVTQLDPKEEELSLQDITMRKAFRSSTIQDQQLFDRKTLPIPLQETYDVCEQPPPLNILTPYRDDGKEGLKFYTNPSYFFDLWKEKMLQDTEDKRKEKRKQKQKNLDRPHEPEKVPRAPHDRRREWQKLAQGPELAEDDANLLHKHIEVANGPASHFETRPQTYVDHMDGSYSLSALPFSQMSELLTRAEERVLVRPHEPGSGSPMHGAGDAKPIPTCISSATGLIENRPQSPATGRTPVFVSPTPGSGSPPLPSALSTSSLRASMTSTGSGSVPGSGSPPATALQAPAVGSGSAPLQIAPGVLHPAGSGIAGSLVQPSPPVARAAPVCETVPVHPLPQGEVQGLPPGSGSPPLGSGGIRPSSPVTVTALAHPPSGLHPTPSTAPGPHVPLMPPSPPSQVIPASEPKRHPSTLPVISDARSVLLEAIRKGIQLRKVEEQREQEAKHERIENDVATILSRRIAVEYSDSEDDSEFDEVDWLE |  | Kd ([1]; modeled as a 1:1 interaction): 138 µM; Kd (Human profilin 1, P07737): 813 µM |
| WAVE1 (P): human WAVE1 [277–488], wild-type proline-rich domain, Q92558 P279G; P280S; P281G; P282S; P325G; P326S; P327G; P328S; P348G; P349S; P350G; P351S; … (protein) MPLVKRNIDPRHLCHTALPRGIKNELECVTNISLANIIRQLSSLSKYAEDIFGELFNEAHSFSFRVNSLQERVDRLSVSVTQLDPKEEELSLQDITMRKAFRSSTIQDQQLFDRKTLPIPLQETYDVCEQPPPLNILTPYRDDGKEGLKFYTNPSYFFDLWKEKMLQDTEDKRKEKRKQKQKNLDRPHEPEKVPRAPHDRRREWQKLAQGPELAEDDANLLHKHIEVANGPASHFETRPQTYVDHMDGSYSLSALPFSQMSELLTRAEERVLVRPHEPGSGSPMHGAGDAKPIPTCISSATGLIENRPQSPATGRTPVFVSPTPGSGSPPLPSALSTSSLRASMTSTGSGSVPGSGSPPATALQAPAVGSGSAPLQIAPGVLHPAPPPIAPPLVQPSPPVARAAPVCETVPVHPLPQGEVQGLPPGSGSPPLGSGGIRPSSPVTVTALAHPPSGLHPTPSTAPGPHVPLMPPSPPSQVIPASEPKRHPSTLPVISDARSVLLEAIRKGIQLRKVEEQREQEAKHERIENDVATILSRRIAVEYSDSEDDSEFDEVDWLE | 182 |  |
| WAVE1 (P): human WAVE1 [277–488], wild-type proline-rich domain, Q92558 P279G; P280S; P281G; P282S; P325G; P326S; P327G; P328S; P369G; P370S; P371G; P372S; … (protein) MPLVKRNIDPRHLCHTALPRGIKNELECVTNISLANIIRQLSSLSKYAEDIFGELFNEAHSFSFRVNSLQERVDRLSVSVTQLDPKEEELSLQDITMRKAFRSSTIQDQQLFDRKTLPIPLQETYDVCEQPPPLNILTPYRDDGKEGLKFYTNPSYFFDLWKEKMLQDTEDKRKEKRKQKQKNLDRPHEPEKVPRAPHDRRREWQKLAQGPELAEDDANLLHKHIEVANGPASHFETRPQTYVDHMDGSYSLSALPFSQMSELLTRAEERVLVRPHEPGSGSPMHGAGDAKPIPTCISSATGLIENRPQSPATGRTPVFVSPTPGSGSPPLPSALSTSSLRASMTSTPPPPVPPPPPPPATALQAPAVGSGSAPLQIAPGVLHPAGSGIAGSLVQPSPPVARAAPVCETVPVHPLPQGEVQGLPPGSGSPPLGSGGIRPSSPVTVTALAHPPSGLHPTPSTAPGPHVPLMPPSPPSQVIPASEPKRHPSTLPVISDARSVLLEAIRKGIQLRKVEEQREQEAKHERIENDVATILSRRIAVEYSDSEDDSEFDEVDWLE | 12 |  |

Further lines, with some results ahead:

| Kd [1, 2] [µM] | Binder | other results |
| --- | --- | --- |
| 145 | WAVE1 (P): human WAVE1 [277–488], wild-type proline-rich domain, Q92558 P279G; P280S; P281G; P282S; P325G; P326S; P327G; P328S; P348G; P349S; P350G; P351S; … (protein) MPLVKRNIDPRHLCHTALPRGIKNELECVTNISLANIIRQLSSLSKYAEDIFGELFNEAHSFSFRVNSLQERVDRLSVSVTQLDPKEEELSLQDITMRKAFRSSTIQDQQLFDRKTLPIPLQETYDVCEQPPPLNILTPYRDDGKEGLKFYTNPSYFFDLWKEKMLQDTEDKRKEKRKQKQKNLDRPHEPEKVPRAPHDRRREWQKLAQGPELAEDDANLLHKHIEVANGPASHFETRPQTYVDHMDGSYSLSALPFSQMSELLTRAEERVLVRPHEPGSGSPMHGAGDAKPIPTCISSATGLIENRPQSPATGRTPVFVSPTPGSGSPPLPSALSTSSLRASMTSTGSGSVPGSGSPPATALQAPAVPPPPAPLQIAPGVLHPAGSGIAGSLVQPSPPVARAAPVCETVPVHPLPQGEVQGLPPGSGSPPLGSGGIRPSSPVTVTALAHPPSGLHPTPSTAPGPHVPLMPPSPPSQVIPASEPKRHPSTLPVISDARSVLLEAIRKGIQLRKVEEQREQEAKHERIENDVATILSRRIAVEYSDSEDDSEFDEVDWLE |  |
| 51 | WAVE1 (P): human WAVE1 [277–488], wild-type proline-rich domain, Q92558 P325G; P326S; P327G; P328S; P348G; P349S; P350G; P351S; P354G; P355S; P356G; P357S; … (protein) MPLVKRNIDPRHLCHTALPRGIKNELECVTNISLANIIRQLSSLSKYAEDIFGELFNEAHSFSFRVNSLQERVDRLSVSVTQLDPKEEELSLQDITMRKAFRSSTIQDQQLFDRKTLPIPLQETYDVCEQPPPLNILTPYRDDGKEGLKFYTNPSYFFDLWKEKMLQDTEDKRKEKRKQKQKNLDRPHEPEKVPRAPHDRRREWQKLAQGPELAEDDANLLHKHIEVANGPASHFETRPQTYVDHMDGSYSLSALPFSQMSELLTRAEERVLVRPHEPPPPPPMHGAGDAKPIPTCISSATGLIENRPQSPATGRTPVFVSPTPGSGSPPLPSALSTSSLRASMTSTGSGSVPGSGSPPATALQAPAVGSGSAPLQIAPGVLHPAGSGIAGSLVQPSPPVARAAPVCETVPVHPLPQGEVQGLPPGSGSPPLGSGGIRPSSPVTVTALAHPPSGLHPTPSTAPGPHVPLMPPSPPSQVIPASEPKRHPSTLPVISDARSVLLEAIRKGIQLRKVEEQREQEAKHERIENDVATILSRRIAVEYSDSEDDSEFDEVDWLE |  |
